From patent US20160137709A1 (AMRYT PHARMACEUTICALS, published 2016)
Changes are numbered by the printed parent chain.

B1: Cmpd 1 (SEQ ID NO: 53) (other)
chain: MLAEAKVLANRELDKYGVSDFYKRLINKAKTVEGVEALKLHILAALPTGGGGASVPIQKVQDDTKTLIKTIVTRINDISHTQSVSSKQKVTGLEFIPGLHPILTLSKMDQTLAVYQQILTSMPSRNVIQISNDLENLRDLLHVLAFSKSCHLPQASGLETLESLGGVLEASGYSTEVVALSRLQGSLQDMLQQLDLSPGC
B2: Cmpd 14 (SEQ ID NO: 60) (other)
chain: MLAEAKVLANRELDKYGVSDFYKRLINKAKTVEGVEALKLHILAALPTGGGGSGGGSGGGSGGGSASPIQRVQDDTKTLIKTIITRINDISPPQGVCSRPRVAGLDFIPRVQSVRTLSGMDQILATYQQILTSLQSRNVIQISNDLENLRDLLHVLAFSKSCPVPRARGSDTIKGLGNVLRASVHSTEVVALSRLKAALQDMLRQLDRNPGC
B3: Compound 15 (SEQ ID NO: 61) (other)
chain: B2 chain with C97S
notes: also called Cmpd 15; ABD1-HuSeal
B4: Cmpd 3 (SEQ ID NO: 55) (other)
chain: MVPIQKVQDDTKTLIKTIVTRINDISHTQSVSSKQKVTGLEFIPGLHPILTLSKMDQTLAVYQQILTSMPSRNVIQISNDLENLRDLLHVLAFSKSCHLPQASGLETLESLGGVLEASGYSTEVVALSRLQGSLQDMLQQLDLSPGCTGGGGSASLAEAKVLANRELDKYGVSDFYKRLINKAKTVEGVEALKLHILAALP
B5: Cmpd 9 (SEQ ID NO: 57) (other)
chain: MLAEAKVLANRELDKYGVSDFYKRLINKAKTVEGVEALKLHILAALPTGGGGSGGGSGGGSGGGSASISIEKIQADTKTLTKTIITRIIQLSTQNGVSTDQRVSGLDFIPGNQQFQNLADMDQTLAVYQQILSSLPMPDRTQISNDLENLRSLFALLATLKNCPFTRSDGLDTMEIWGGIVEESLYSTEVVTLDRLRKSLKNIEKQLDHIQGC
B6: Cmpd 16 (SEQ ID NO: 62) (other)
chain: MLAEAKVLANRELDKYGVSDFYKRLINKAKTVEGVEALKLHILAALPTGPIQRVQDDTKTLIKTIITRINDISPPQGVCSPRVAGLDFIPRVQSVRTLSGMDQILATYQQILTSLQSRNVIQISNDLENLRDLLHVLAFSKSCPVPRARGSDTIKGLGNVLRASVHSTEVVALSRLKAALQDMLRQLDRNPGC
B7: Cmpd 18 (SEQ ID NO: 64) (other)
chain: MLAEAKVLANRELDKYGVSDYYKNIINRAKTVEGVRALKLHILAALPTGGGGSGGGSGGGSGGGSASVPIQKVQDDTKTLIKTIVTRINDISHTQSVSSKQKVTGLEFIPGLHPILTLSKMDQTLAVYQQILTSMPSRNVIQISNDLENLRDLLHVLAFSKSCHLPQASGLETLESLGGVLEASGYSTEVVALSRLQGSLQDMLQQLDLSPGC
B8: Compound 2 (SEQ ID NO: 54) (other)
chain: B7 chain with Y21F, N24R, I25L, R28K, R36E
notes: also called Cmpd 2; ABD1-A500
B9: Cmpd 4 (SEQ ID NO: 56) (other)
chain: MVPIQKVQDDTKTLIKTIVTRINDISHTQSVSSKQKVTGLEFIPGLHPILTLSKMDQTLAVYQQILTSMPSRNVIQISNDLENLRDLLHVLAFSKSCHLPQASGLETLESLGGVLEASGYSTEVVALSRLQGSLQDMLQQLDLSPGCTGGGGSGGGSGGGSGGGSASLAEAKVLANRELDKYGVSDFYKRLINKAKTVEGVEALKLHILAALP

Each binder was assayed against T1, chimeric Hu-Leptin/Mu-EPO receptor (human; mouse, UniProt P48357 22-839; P14753 250-507) (assay: cell-based or functional assay).
T1 sequence (looked up): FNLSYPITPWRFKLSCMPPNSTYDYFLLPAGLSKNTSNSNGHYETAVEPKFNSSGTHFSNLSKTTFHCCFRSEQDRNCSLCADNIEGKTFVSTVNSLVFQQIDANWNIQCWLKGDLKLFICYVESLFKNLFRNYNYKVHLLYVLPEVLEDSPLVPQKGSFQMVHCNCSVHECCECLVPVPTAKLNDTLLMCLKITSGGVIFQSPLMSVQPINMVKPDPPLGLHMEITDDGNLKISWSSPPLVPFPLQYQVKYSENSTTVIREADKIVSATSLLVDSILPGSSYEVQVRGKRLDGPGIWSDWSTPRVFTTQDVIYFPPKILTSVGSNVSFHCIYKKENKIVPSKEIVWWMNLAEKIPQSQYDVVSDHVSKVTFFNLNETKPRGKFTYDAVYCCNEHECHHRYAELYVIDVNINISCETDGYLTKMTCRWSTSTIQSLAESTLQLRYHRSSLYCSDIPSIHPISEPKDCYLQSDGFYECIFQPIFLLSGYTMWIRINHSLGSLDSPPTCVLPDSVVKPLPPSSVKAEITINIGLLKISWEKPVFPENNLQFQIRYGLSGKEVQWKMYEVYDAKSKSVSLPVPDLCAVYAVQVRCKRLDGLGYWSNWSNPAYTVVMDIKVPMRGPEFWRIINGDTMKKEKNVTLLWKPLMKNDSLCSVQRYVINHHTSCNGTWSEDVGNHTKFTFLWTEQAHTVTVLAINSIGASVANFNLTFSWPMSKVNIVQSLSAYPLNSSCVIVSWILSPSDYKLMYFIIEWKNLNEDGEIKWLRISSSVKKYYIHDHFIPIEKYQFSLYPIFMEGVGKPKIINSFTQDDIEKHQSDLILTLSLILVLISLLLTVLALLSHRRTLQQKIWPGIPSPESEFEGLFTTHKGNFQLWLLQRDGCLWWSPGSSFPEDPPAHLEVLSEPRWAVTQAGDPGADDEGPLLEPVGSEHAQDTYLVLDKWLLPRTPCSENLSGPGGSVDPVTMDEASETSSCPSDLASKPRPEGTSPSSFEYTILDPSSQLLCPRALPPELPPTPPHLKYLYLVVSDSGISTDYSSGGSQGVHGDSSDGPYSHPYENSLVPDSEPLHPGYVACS

In order of rising “EC50 nM (Obeca STAT5 assay)” value:
1. B4  0.095 nM
2. B9  0.103 nM
3. B5  0.185 nM
4. B7  0.322 nM
5. B2  0.406 nM
6. B6  0.411 nM
7. B3  0.427 nM
8. B8  0.53 nM
9. B1  0.628 nM

What follows are binders tested against T2, Human serum albumin (human, UniProt P02768 25-609) (assay: SPR (BioRad ProteOn XPR36), albumin amine-coupled on GLC chip, polypeptide as analyte, 25 C).
T2 construct: Amine-coupled to the GLC sensor chip; also called Human SA; HSA
T2 sequence (P02768 25-609 limits assumed): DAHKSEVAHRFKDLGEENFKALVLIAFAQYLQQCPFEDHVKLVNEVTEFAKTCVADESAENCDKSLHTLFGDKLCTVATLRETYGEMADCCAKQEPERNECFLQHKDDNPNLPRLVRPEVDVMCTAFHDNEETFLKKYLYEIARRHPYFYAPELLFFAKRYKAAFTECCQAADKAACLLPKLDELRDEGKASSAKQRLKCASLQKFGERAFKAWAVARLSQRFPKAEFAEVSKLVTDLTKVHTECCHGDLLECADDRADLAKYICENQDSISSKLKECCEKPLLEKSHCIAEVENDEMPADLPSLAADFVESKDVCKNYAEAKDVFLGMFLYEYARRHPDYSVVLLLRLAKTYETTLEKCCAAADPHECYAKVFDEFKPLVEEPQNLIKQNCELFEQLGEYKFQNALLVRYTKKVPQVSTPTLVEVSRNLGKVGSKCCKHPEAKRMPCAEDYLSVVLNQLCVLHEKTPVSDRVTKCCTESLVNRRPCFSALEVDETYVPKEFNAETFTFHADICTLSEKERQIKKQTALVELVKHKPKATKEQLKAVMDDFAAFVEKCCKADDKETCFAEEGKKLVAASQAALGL
Protocol: (§1) All studies were conducted on a BioRad ProteOn XPR36 system using a GLC sensor chip at 25 degrees C. For amine coupling the GLC chip was activated for 5 minutes using a 1:1 mixture of sulfo-NHS/EDC diluted 30-fold from the initial stock in water as shown below. Each albumin sample was diluted to 25 ug/ml in 10 mM Na Acetate pH 5.0 and injected for 5 minutes over separate sensor surfaces. Each surface was then blocked with 1 M ethanolamine pH 8.5. Each albumin was coupled at a density of 2000-5000 in resonance units.
(§2) The binding of an engineered polypeptide was tested using 5 nM as the highest concentration in a three-fold dilution series. The running buffer contained 10 mM HEPES pH 7.4, 150 mM NaCl, 3 mM EDTA and 0.005% tween-20. All samples were tested using a 3-fold dilution series. Each concentration series was tested in duplicate. The dissociation phase for the highest concentration was monitored for 3 hours.

In order of falling Kd:
1. B8  0.056 nM
2. B3  0.012 nM

What follows are binders tested against T3, Rat serum albumin (rat, UniProt P02770 25-608) in the same assay as above.
T3 construct: Amine-coupled to the GLC sensor chip; also called Rat SA; RSA
T3 sequence (P02770 25-608 limits assumed): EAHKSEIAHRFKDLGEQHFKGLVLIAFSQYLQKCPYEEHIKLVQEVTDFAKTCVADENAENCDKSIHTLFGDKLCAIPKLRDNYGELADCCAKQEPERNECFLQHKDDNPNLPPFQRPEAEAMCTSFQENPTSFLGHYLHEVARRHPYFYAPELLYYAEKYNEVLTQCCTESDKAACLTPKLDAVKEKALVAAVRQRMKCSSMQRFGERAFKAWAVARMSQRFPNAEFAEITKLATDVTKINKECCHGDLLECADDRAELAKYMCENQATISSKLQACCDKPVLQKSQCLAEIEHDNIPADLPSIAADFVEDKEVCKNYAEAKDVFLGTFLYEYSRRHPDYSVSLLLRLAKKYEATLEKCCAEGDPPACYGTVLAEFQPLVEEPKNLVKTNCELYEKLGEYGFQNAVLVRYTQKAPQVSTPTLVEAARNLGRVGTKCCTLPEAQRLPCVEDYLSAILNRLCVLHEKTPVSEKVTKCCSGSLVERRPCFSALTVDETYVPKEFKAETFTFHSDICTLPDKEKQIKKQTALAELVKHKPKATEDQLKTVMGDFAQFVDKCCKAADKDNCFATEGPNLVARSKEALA
Protocol: as §1, §2

Going from B3 to B8, the Kd rises from less than 0.002 nM to 0.033 nM. The first binds more tightly here.

The binders below were run against T4, Dog serum albumin (dog, UniProt P49822 25-608) in the same assay as above.
T4 construct: Amine-coupled to the GLC sensor chip; also called Dog SA
T4 sequence (P49822 25-608 limits assumed): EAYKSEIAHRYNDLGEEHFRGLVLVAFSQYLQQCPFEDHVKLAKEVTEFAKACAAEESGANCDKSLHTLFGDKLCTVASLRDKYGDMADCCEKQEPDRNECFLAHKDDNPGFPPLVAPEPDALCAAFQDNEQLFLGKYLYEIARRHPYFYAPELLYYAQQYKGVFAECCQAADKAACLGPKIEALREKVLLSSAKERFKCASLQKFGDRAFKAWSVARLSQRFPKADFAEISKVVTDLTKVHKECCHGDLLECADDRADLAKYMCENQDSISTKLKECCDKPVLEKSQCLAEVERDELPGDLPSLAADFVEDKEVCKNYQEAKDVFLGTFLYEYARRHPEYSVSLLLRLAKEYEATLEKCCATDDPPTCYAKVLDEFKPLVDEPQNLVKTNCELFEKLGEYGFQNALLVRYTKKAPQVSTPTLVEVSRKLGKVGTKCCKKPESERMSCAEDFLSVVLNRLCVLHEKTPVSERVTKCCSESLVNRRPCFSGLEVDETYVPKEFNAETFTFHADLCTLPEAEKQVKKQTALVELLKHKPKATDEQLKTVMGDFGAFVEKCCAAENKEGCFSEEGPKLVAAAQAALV
Protocol: as §1, §2

In order of rising Kd:
1. B3  0.04 nM
2. B8  0.358 nM

Each binder was assayed against T5, Monkey serum albumin (monkey) in the same assay as above.
T5 construct: Amine-coupled to the GLC sensor chip; also called Monkey SA
T5 sequence (A2V9Z4 25-608): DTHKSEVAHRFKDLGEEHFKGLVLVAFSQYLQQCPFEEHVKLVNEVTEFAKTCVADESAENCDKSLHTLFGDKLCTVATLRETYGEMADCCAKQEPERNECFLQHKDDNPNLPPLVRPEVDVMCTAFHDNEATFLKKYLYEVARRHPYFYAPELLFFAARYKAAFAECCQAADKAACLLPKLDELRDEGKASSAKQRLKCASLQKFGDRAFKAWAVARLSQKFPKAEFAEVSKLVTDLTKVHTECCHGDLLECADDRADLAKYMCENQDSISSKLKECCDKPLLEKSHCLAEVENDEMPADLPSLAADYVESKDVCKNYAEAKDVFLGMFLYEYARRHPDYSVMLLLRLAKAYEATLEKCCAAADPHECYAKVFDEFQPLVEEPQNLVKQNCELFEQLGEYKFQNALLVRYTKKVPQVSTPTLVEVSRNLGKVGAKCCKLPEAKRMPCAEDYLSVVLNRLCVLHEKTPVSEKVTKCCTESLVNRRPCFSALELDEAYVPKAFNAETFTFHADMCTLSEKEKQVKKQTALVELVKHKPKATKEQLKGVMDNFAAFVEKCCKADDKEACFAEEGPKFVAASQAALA
Protocol: as §1, §2

In order of rising Kd:
1. B3  0.017 nM
2. B8  0.158 nM

Each binder was assayed against T6, Mouse serum albumin (mouse, UniProt P07724 25-608) in the same assay as above.
T6 construct: Amine-coupled to the GLC sensor chip; also called Mouse SA
Protocol: as §1, §2

In order of falling Kd:
1. B8  1.97 nM
2. B3  0.277 nM
